Substitutions are numbered along the chain they refer to. Square brackets hold non-standard residues; d marks the D form. Ends that are not written are not given here. Hyp = O=C(O)[C@@H]1C[C@@H](O)CN1
How the values were obtained:
Experiment in all cases: ITC; 0.5–1 mM peptide titrated into 10–40 μM ecdTDR; 25°C; 10 mM sodium citrate, 100 mM NaCl, pH 5.5; fitted to one set of binding sites; MicroCal Auto-iTC200
Conditions in all cases: both partners purified
[1] = molecular target: T1, ecdTDR R138E mutant (Arabidopsis thaliana, UniProt Q9FII5 30-642, R138E)
T1 construct: TDR/PXY of A. thaliana, extracellular domain, residues 30-642; source: High Five insect cells (baculovirus), secreted, purified as the wild type (Ni-NTA, size-exclusion chromatography)
T1 sequence (looked up): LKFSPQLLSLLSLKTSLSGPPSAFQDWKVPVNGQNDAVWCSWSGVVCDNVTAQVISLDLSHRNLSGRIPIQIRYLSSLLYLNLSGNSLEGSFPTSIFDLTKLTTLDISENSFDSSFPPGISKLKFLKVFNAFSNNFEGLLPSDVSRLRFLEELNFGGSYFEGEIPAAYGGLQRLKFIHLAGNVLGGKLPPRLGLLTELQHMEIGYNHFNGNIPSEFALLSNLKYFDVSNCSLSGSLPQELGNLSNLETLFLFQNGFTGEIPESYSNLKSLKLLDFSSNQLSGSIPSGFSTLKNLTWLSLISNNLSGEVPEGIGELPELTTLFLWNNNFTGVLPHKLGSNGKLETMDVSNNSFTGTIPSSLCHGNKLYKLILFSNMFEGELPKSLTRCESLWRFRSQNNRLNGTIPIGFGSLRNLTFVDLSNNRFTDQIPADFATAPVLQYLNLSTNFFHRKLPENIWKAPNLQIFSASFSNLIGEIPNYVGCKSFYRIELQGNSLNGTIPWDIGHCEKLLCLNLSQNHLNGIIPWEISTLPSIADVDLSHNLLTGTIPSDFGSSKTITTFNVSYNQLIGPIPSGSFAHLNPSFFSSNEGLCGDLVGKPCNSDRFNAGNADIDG

[2] = molecular target: T2, ecdTDR R423A mutant (Arabidopsis thaliana, UniProt Q9FII5 30-642, R423A)
T2 construct: TDR/PXY of A. thaliana, extracellular domain, residues 30-642; source: High Five insect cells (baculovirus), secreted, purified as the wild type (Ni-NTA, size-exclusion chromatography)
T2 sequence (looked up): T1 sequence (looked up) with E109R, R394A

[3] = molecular target: T3, ecdTDR E231A mutant (Arabidopsis thaliana, UniProt Q9FII5 30-642, E231A)
T3 construct: TDR/PXY of A. thaliana, extracellular domain, residues 30-642; source: High Five insect cells (baculovirus), secreted, purified as the wild type (Ni-NTA, size-exclusion chromatography)
T3 sequence (looked up): T1 sequence (looked up) with E109R, E202A

[4] = molecular target: T4, ecdTDR R138A mutant (Arabidopsis thaliana, UniProt Q9FII5 30-642, R138A)
T4 construct: TDR/PXY of A. thaliana, extracellular domain, residues 30-642; source: High Five insect cells (baculovirus), secreted, purified as the wild type (Ni-NTA, size-exclusion chromatography)
T4 sequence (looked up): T1 sequence (looked up) with E109A

Measured: binding result

B1: Tracheary Element Differentiation Inhibitory Factor (TDIF) peptide (peptide)
peptide: HEV[Hyp]SG[Hyp]NPISN
notes: TDIF, the 12-residue CLE peptide processed from CLE41 and CLE44 of A. thaliana; printed as HEV(Hyp)SG(Hyp)NPISN; numbers count on: the 12-residue peptide; CLE44 encodes the same peptide; also called wild type TDIF; wtTDIF; source: synthetic peptide (peptide 2.0)
binds: all assays above

— PMC5383425, “Differential CLE peptide perception by plant receptors implicated from structural and functional analyses of TDIF-TDR interactions” (PLoS ONE, 2017)
